From article PMC8215223 come the findings set out here.

The target in the test is GM130 (UniProt Q08379). Description: co-IP of GM130 with GFP-HOOK3. To be noted: reference: wild type.

On to HOOK3 (from UniProt Q86VS8) S238A, for which the “binding against the reference” value (sites S238) was “weaker”.

For HOOK3 (from UniProt Q86VS8) S707A, the “binding against the reference” value (sites S707) is on record as “weaker”.
